# Measurements reported in US20030211466.
# Read-outs that look alike come from different tables or passages of the source.
# Test system: HuB (Hel-N2, ELAV-like), Q12926-2
# Conditions: increase in HuB RNP on differentiation
# HuB (Hel-N2, ELAV-like), Q12926-2, sequence (Q12926 other isoform, or with tags, fused parts or gaps): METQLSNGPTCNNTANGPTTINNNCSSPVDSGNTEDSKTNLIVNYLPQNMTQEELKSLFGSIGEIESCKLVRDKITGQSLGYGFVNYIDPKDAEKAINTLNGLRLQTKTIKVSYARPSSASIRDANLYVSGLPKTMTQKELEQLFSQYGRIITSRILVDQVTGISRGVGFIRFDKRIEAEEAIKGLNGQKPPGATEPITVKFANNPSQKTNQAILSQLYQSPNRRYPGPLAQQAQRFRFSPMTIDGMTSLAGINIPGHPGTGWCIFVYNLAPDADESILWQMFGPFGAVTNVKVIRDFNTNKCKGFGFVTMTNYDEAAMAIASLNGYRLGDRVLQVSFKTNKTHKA
substance,measurement,setting,value
CACN (calcium channel beta 3) mRNA,binding signal,total RNA +1.31,14.5 fold
CELSR mRNA,binding signal,total RNA -1.33,9.41 fold
MBNL mRNA,binding signal,total RNA +1.42,8.95 fold
